± gives the standard error. This sample holds only a part of the variants without activity.
B1: glmS ribozyme (parent)
chain: AUAAAAGCGCCAGAACUACAGAAAUGUAGUUGACGAGGAGGAGGUUUAUCGAAUUUUCGGCGGAUGCCUCCAAA

Variants of: B1
Assay: self-cleavage kobs at 2500 uM GlcN6P; higher = faster cleavage; RNA array
Settings: with glucosamine-6-phosphate
Summary of the method: (§1)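 Ribozyme variants carrying barcodes were transcribed in situ on sequenced MiSeq chips by E. coli RNA polymerase and tracked at 37 °C with a hybridised Cy3 probe. They were exposed to 40 μM to 10 mM glucosamine-6-phosphate in HEPES/KCl/Mg(OAc)2 buffer. kobs came from exponential decay fits of normalised per-tile medians, and kcat and KM from weighted Michaelis–Menten fits.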

AUAAAAGCGCCAGAAAUACAGAAAUGUAGUUGACGAGGAGAUGGUUUAUCGAAUUUUCGGCGGAUGCCUCCAAA and AUAAAAGCGCCAGAACUACAGAAAUGUACUUGACGAGGAGGAGGUUUCCCGAAUUUUCGGCGGAUGCCUCCAAA cannot be ordered by “self-cleavage kobs at 2500 uM GlcN6P” value: < 1e-05 s⁻¹ for the first, < 1e-05 s⁻¹ for the second.

Going from AUAAAAGCGCCAGAAUUACAGAAAUGUAGUUGACGAGGAGGAGGUGCAUCGAAUUUUCGGCGGAUGCCUUCAAA to AUAAAAGCGCCAGAAAUACAGAAAUGUAGUUGACGAGGAGGAGGUUUAUCGAAUUUUCGGCGCAUGGCUCCAAA, the “self-cleavage kobs at 2500 uM GlcN6P” value falls from 0.00139 ± 0.00038 s⁻¹ to < 1e-05 s⁻¹.

Compared with AUAAAAGCGCCAGAAUUACAGAAAUGUAGUUGACGAGGAGGAGGUGUAUCGAAUCUUCGGCGGAUGCCUCCAAA, AUAAAAGCGCCAGAAUUACAGAAAUGUAGUUGACGAGGAGGGGGUUUAUCGAAUUUCCGGCGGAUGCCUCCAAA is 14-fold lower in “self-cleavage kobs at 2500 uM GlcN6P” value: 0.00261 ± 0.00068 s⁻¹ for the first, 0.000189 ± 6.6e-05 s⁻¹ for the second.

Compared with AUAAAAGCGCCAGAAGUACAGAAAUGUAGUUGACGAGGAGGAGGUUUAUCUAAUUUGCGGCGGAUGCCUCCAAA, AUAAAAGCGCCAGAACUACAAAAAUGUAGUUGACGAGGAGGAGGUUUCUCGAAUUUUCGGCGGAUGCCUCCAAA is higher in “self-cleavage kobs at 2500 uM GlcN6P” value: < 1e-05 s⁻¹ for the first, 0.000242 ± 7.9e-05 s⁻¹ for the second.

AUAAAAGCGCCAGAAUUACAGAAAUGUAGUUGACGAGGAGGAGGUUUAUCGAAUGUUCGGCGGAUGGCUCCAAA and AUAAAAGCGCCAGAACUACAGAACUGUAGUUGACGAGGAUGAGGUUUAUCGAAUUUUCGGCGGAUGCCUCCAAA are within error of each other in “self-cleavage kobs at 2500 uM GlcN6P” value: 0.000952 ± 0.00032 s⁻¹ for the first, 0.00193 ± 0.0007 s⁻¹ for the second.

AUAAAAGCGCCAGAAGUACAGAAAUGUAGUUGACGUGGAGGAGGUUUGUCGAAUUUUAGGCGGAUGCCUCCAAA and AUAAAAGCGCCAGAACUACAGAAAUGUAAUUGACGAGGAGGCGGUUUAUCGAAUUUUCGGCGGUUGCCUCCAAA cannot be ordered by “self-cleavage kobs at 2500 uM GlcN6P” value: < 1e-05 s⁻¹ for the first, < 1e-05 s⁻¹ for the second.

AUAAAAGCGCCAGAAAUACAGAAAUGUAGUUGACGAGGAGGAGGUUUAUCGAAUUUUCGGCGGAUACUUCCAAA and AUAAAAGCGCCAGAACUACAGAAAUGUACUUGACGAGGAGGAGGUUUAUCGAAUUUUCGGCGGAUGAGUCCAAA are within error of each other in “self-cleavage kobs at 2500 uM GlcN6P” value: 6.12e-05 ± 1.5e-05 s⁻¹ for the first, 7.78e-05 ± 2.8e-05 s⁻¹ for the second.

Compared with AUAAAAGCGCCAGAACUACAGAAAUGUACUUGACGAGGAGGAGGUUUUUCGAAUUUUCGCCGGAUGCCUCCAAA, AUAAAAGCGCCAGAAUUACAGAAAUGUAGUUGACGAGGAGGAGGUUUAUCGAAUUUACGGCGGAUGCCUACAAA is higher in “self-cleavage kobs at 2500 uM GlcN6P” value: < 1e-05 s⁻¹ for the first, 8.78e-05 ± 3.6e-05 s⁻¹ for the second.

Compared with AUAAAAGCGCCAGAACUACAGAAAUGUAAUUGACGAGGAGGAGGUUUAUCGAAUUUUCGGCGGAUGCCCUCAAA, AUAAAAGCGCCAGAACUACAGAAAUUUAGUUGACGAGGAGGAGGUUUAUCGAACUUUCUGCGGAUGCCGCCAAA is lower in “self-cleavage kobs at 2500 uM GlcN6P” value: 5.97e-05 ± 1.6e-05 s⁻¹ for the first, < 1e-05 s⁻¹ for the second.

Going from AUAAAAGCGCCAGAACUACAGAAAUGUACUUGACUAGGAUGAGGUUUAUCGAAUUUUCGGCGGAUGCCUCCAAA to AUAAAAGCGCCAGAACUACAGAAAUUUAGUUGACGAGGAGGAGGUUUAUCGAAUUUUCGGCGGAAGCCUCCAAA, the “self-cleavage kobs at 2500 uM GlcN6P” value rises from < 1e-05 s⁻¹ to 0.00219 ± 0.00042 s⁻¹.

AUAAAAGCGCCAGAAAUACAGAAAUGUAGUUGACGAGGAGGAGGUUUAUCGAAUUGUCGGCGGAUGCCUUCAAA and AUAAAAGCGCCAGAAUUACAGAAAUGUAGUCGACGAGGAGGAGGUUUAUCGACUUAUCGGCGGAUGCCUUCAAA are within error of each other in “self-cleavage kobs at 2500 uM GlcN6P” value: 0.000265 ± 6e-05 s⁻¹ for the first, 0.000183 ± 4.6e-05 s⁻¹ for the second.

Going from AUAAAAGCGCCAGAAGUACAGAAAUGUAGUUGACGAGGAGGAGGUUUAUCGAAUUUUCGGCGGAAGCCUCUAAA to AUAAAAGCGCCAGAACUACAGAAAUGUAAUUGACGAUGAGGAGGUUUAUCGAAUUUCCGGCGGAUGCCUCCAAA, the “self-cleavage kobs at 2500 uM GlcN6P” value falls from 0.000341 ± 8.1e-05 s⁻¹ to < 1e-05 s⁻¹.

AUAAAAGCGCCAGAACUACAGAAAUGUACUUGACGAGGAUGAGGUCUAUCGAAUUUUCGGCGGAUGACUCCAAA and AUAAAAGCGCCAGAAUUACAGAAAUGUAGUUGACUAGUAGGAGGUUUAUAGAAUUUUCGGCGGAUGCCUCCAAA cannot be ordered by “self-cleavage kobs at 2500 uM GlcN6P” value: < 1e-05 s⁻¹ for the first, < 1e-05 s⁻¹ for the second.

First: AUAAAAGCGCCAGAAUUACAGAAAUGUAGUUGAAGCGGAGGAGGUUUAUCGAAUUUUAGGCGGAUGCCUCCAAA
Second: AUAAAAGCGCCAGAAUUACAGAAAUGUAGUUGACGAGGAGGACGGUUAUCGAAUUUUCGGCGGAUGCCUCCAAA
The “self-cleavage kobs at 2500 uM GlcN6P” value of the first is lower: < 1e-05 s⁻¹ for the first, 0.000762 ± 0.00024 s⁻¹ for the second.

AUAAAAGCGCCAGAACUACAGAAAUGUAAUUGACGAGGAGGAGGUUUUUCGAAUUUUCGGCGGAUGCCACCAAA and AUAAAAGCGCCAGAAUUACAGAAAUGUAGUUGAAGAGGAGAAGGUUUAUCGAAUUUUCGGCGGAUGCUUCAAAA cannot be ordered by “self-cleavage kobs at 2500 uM GlcN6P” value: < 1e-05 s⁻¹ for the first, < 1e-05 s⁻¹ for the second.

Compared with AUAAAAGCGCCAGAACUACAGAAAUGUAAUUUACGAGGAGGAGGUUUAUCGAAUUUUCGCCGGAUGCCUCCAAA, AUAAAAGCGCCAGAAUUACAGAAAUGUAGUUGACGAGGAGGAGGUUUAUCGAAUUUUUGGCGGAUGCCGCCAAA is higher in “self-cleavage kobs at 2500 uM GlcN6P” value: < 1e-05 s⁻¹ for the first, 7.44e-05 ± 2.1e-05 s⁻¹ for the second.

For AUAAAAGCGCCAGAACUACAGAAAUGUAAUUGACGAGGAGGAGGUUAAUCGUAUUUUCGGCGGAUGCCUCCAAA, the “self-cleavage kobs at 2500 uM GlcN6P” value was 4.18e-05 ± 1.7e-05 s⁻¹.

Variants of: B1
Assay: self-cleavage kobs at 10000 uM GlcN6P; higher = faster cleavage; RNA array
Settings: with glucosamine-6-phosphate
Summary of the method: as §1

Going from AUAAAAGCGCCAGAAUUACAGAAAUGUAGUUGACGAGGAGGGGGUUUAUCGAAUUUCCGGCGGAUGCCUCCAAA to AUAAAAGCGCCAGAACUACAGAAAUGUAAUUGACGAGGAGGAGGUUUAUCGAAUUUUCGGCGGAUGCCCUCAAA, the “self-cleavage kobs at 10000 uM GlcN6P” value falls from 0.00018 ± 4.1e-05 s⁻¹ to 7.72e-05 ± 1.5e-05 s⁻¹ (2.3-fold).

AUAAAAGCGCCAGAAUUACAGAAAUGUAGUCGACGAGGAGGAGGUUUAUCGACUUAUCGGCGGAUGCCUUCAAA and AUAAAAGCGCCAGAAGUACAGAAAUGUAGUUGACGAGGAGGAGGUUUAUCGAAUUUUCGGCGGAAGCCUCUAAA are within error of each other in “self-cleavage kobs at 10000 uM GlcN6P” value: 0.000335 ± 8.2e-05 s⁻¹ for the first, 0.000346 ± 8.7e-05 s⁻¹ for the second.
